From patent US20220363770A1 (Amgen, published 2022) come the findings set out here.

Positions count from the first letter of the chain named.

One assay addresses T1, human PAC1 receptor (human, UniProt P41586 24-468).
T1 sequence: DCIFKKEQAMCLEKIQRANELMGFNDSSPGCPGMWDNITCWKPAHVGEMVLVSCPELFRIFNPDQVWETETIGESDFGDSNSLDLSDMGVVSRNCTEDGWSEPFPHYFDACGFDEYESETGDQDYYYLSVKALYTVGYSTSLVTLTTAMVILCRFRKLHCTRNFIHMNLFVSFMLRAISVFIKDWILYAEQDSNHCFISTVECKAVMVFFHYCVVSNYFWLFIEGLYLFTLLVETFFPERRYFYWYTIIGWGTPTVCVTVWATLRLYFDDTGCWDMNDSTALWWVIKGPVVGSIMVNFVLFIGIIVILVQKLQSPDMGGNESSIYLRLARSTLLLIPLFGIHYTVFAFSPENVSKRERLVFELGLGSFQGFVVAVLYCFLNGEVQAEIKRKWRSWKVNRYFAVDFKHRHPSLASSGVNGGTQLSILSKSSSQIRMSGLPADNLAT
Put plainly: cell-based or functional assay.

For the next assay, the target named is human CGRP receptor (human, UniProt Q16602 23-461; O60894 27-148). Put plainly: cell-based or functional assay.
Sequence of human CGRP receptor (Q16602 23-461 limits assumed, chain 1 of 2): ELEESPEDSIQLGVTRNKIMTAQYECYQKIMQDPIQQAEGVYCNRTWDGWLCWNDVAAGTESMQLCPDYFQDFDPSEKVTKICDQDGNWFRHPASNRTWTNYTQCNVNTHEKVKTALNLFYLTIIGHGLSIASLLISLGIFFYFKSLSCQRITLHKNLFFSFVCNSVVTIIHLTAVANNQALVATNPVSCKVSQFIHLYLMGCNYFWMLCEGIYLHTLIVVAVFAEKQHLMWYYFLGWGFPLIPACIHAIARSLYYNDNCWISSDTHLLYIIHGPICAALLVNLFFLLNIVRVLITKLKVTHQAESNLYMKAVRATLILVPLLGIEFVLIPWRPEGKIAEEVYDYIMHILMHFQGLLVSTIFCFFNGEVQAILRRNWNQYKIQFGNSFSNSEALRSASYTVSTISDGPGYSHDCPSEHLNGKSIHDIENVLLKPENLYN
Sequence of human CGRP receptor (O60894 27-148 limits assumed, chain 2 of 2): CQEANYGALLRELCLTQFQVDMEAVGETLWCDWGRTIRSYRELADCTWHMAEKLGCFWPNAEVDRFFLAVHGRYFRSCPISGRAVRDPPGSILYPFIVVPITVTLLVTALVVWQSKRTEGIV

B1: iPS:454785 (bispecific antibody, human IgG1, kappa, lambda, N297G)
light 1: QSVLTQPPSVSAAPGQKVTISCSGSYSNIGRYSVSWYQQLPGTAPKLLIYDNNKRPSGIPDRFSGSKSGTSATLGITGLQTGDEADYYCGTWDSRLSAVVFGGGTKLTVLGQPKAAPSVTLFPPSSEELQANKATLVCLISDFYPGAVTVAWKADSSPVKAGVETTTPSKQSNNKYAAKSYLSLTPEQWKSHRSYSCQVTHEGSTVEKTVAPTECS
heavy 1: QVQLVESGGGVVQPGRSLRLSCAASGFTFSSFGMHWVRQAPGKGLEWVAVISFDGSIKYSVDSVKGRFTISRDNSKNTLFLQMNSLRAEDTAVYYCARDRLNYYESSGYYHYKYYGMAVWGQGTTVTVSSASTKGPSVFPLAPSSKSTSGGTAALGCLVKDYFPEPVTVSWNSGALTSGVHTFPAVLQSSGLYSLESVVTVPSSSLGTQTYICNVNHKPSNTKVDKKVEPKSCDKTHTCPPCPAPELLGGPSVFLFPPKPKDTLMISRTPEVTCVVVDVSHEDPEVKFNWYVDGVEVHNAKTKPCEEQYGSTYRCVSVLTVLHQDWLNGKEYKCKVSNKALPAPIEKTISKAKGQPREPQVYTLPPSRKKMTKNQVSLTCLVKGFYPSDIAVEWESNGQPENNYKTTPPVLKSDGSFFLYSKLTVDKSRWQQGNVFSCSVMHEALHNHYTQKSLSLSPGK
light 2: EIVLTQSPATLSLSPGERATLSCRASKSVGWSLHWYQQKPGQAPRLLIKYASQSLSGIPARFSGSGSGTDFTLTISSLEPEDFAVYYCHQSSRLPFTFGPGTKVDIKRTVAAPSVFIFPPSDEQLKSGTASVVCLLNNFYPREAKVQWKVDNALQSGNSQESVTEQDSKDSTYSLESTLTLSKADYEKHKVYACEVTHQGLSSPVTKSFNRGEC
heavy 2: not shown
Regarding B1, in the assay with human PAC1 receptor, the “Fold-improvement over 29G4v22 Ab” value amounted to 4.6 fold and the midpoint of inhibition, the IC50, lay at 1.43 nM. Besides, in the assay with human CGRP receptor, the “Fold-improvement over 4E4 Ab” value was 1.1 fold and the IC50 (as a rule, the midpoint of a concentration-inhibition curve) was determined as 0.47 nM.

B2: iPS:454821 (bispecific antibody, human IgG1, kappa, lambda, N297G)
light 1: B1 light 1 with Y26R, R31I, Y32K, S33A
heavy 1: B1 heavy 1
light 2: B1 light 2 with W31R
heavy 2: not shown
On to B2, for which, in the assay with human PAC1 receptor, the “Fold-improvement over 29G4v22 Ab” value was found to be 9.2 fold and the “IC50” value was found to be 0.72 nM. Also, in the assay with human CGRP receptor, the “Fold-improvement over 4E4 Ab” value turned out to be 1.5 fold and the 50% inhibitory concentration (IC50) worked out at 0.39 nM.

B3: iPS:454815 (bispecific antibody, human IgG1, kappa, lambda, N297G)
light 1: B1 light 1 with Y26R, R31I, Y32K, S33A
heavy 1: B1 heavy 1
light 2: B1 light 2 with W31R
heavy 2: not shown
For the molecule B3, in the assay with human PAC1 receptor, the “Fold-improvement over 29G4v22 Ab” value is 10.1 fold and the 50% inhibitory concentration (IC50) came to 0.65 nM. Besides, in the assay with human CGRP receptor, the “Fold-improvement over 4E4 Ab” value is 1.6 fold and the “IC50” value came out at 0.37 nM.

B4: iPS:454817 (bispecific antibody, human IgG1, kappa, lambda, N297G)
light 1: B1 light 1 with Y26R, R31I, Y32K, S33A
heavy 1: B1 heavy 1
light 2: B1 light 2 with W31R
heavy 2: not shown
As to B4, in the assay with human PAC1 receptor, the “Fold-improvement over 29G4v22 Ab” value was 10.7 fold and the “IC50” value came to 0.62 nM. For the same molecule, in the assay with human CGRP receptor, the “Fold-improvement over 4E4 Ab” value came out at 1.7 fold and it took 0.33 nM to reach half-maximal inhibition (IC50).

B5: iPS:454803 (bispecific antibody, human IgG1, kappa, lambda, N297G)
light 1: B1 light 1 with Y26R, R31I, Y32K, S33A
heavy 1: B1 heavy 1
light 2: B1 light 2
heavy 2: not shown
Regarding B5, in the assay with human PAC1 receptor, the “Fold-improvement over 29G4v22 Ab” value amounted to 8.7 fold and the half-inhibitory concentration (IC50) was 0.92 nM. Moreover, in the assay with human CGRP receptor, the “Fold-improvement over 4E4 Ab” value came out at 1.2 fold and the concentration for half-maximal inhibition (IC50) was 0.44 nM.

B6: iPS:454793 (bispecific antibody, human IgG1, kappa, lambda, N297G)
light 1: B1 light 1 with Y26R, R31I, Y32K, S33A
heavy 1: B1 heavy 1
light 2: B1 light 2 with W31Q
heavy 2: not shown
As to B6, in the assay with human PAC1 receptor, the “Fold-improvement over 29G4v22 Ab” value amounted to 6 fold and the “IC50” value amounted to 1.09 nM. Moreover, in the assay with human CGRP receptor, the “Fold-improvement over 4E4 Ab” value was 1.3 fold and the “IC50” value was determined as 0.39 nM.

B7: iPS:454799 (bispecific antibody, human IgG1, kappa, lambda, N297G)
light 1: B1 light 1 with Y26R, R31I, Y32K, S33A
heavy 1: B1 heavy 1
light 2: B1 light 2 with W31Q
heavy 2: not shown
For B7, in the assay with human PAC1 receptor, the “Fold-improvement over 29G4v22 Ab” value was 4.1 fold and the half-inhibitory concentration (IC50) turned out to be 1.59 nM. Besides, in the assay with human CGRP receptor, the “Fold-improvement over 4E4 Ab” value is 1.6 fold and the concentration for half-maximal inhibition (IC50) was 0.32 nM.

B8: iPS:454805 (bispecific antibody, human IgG1, kappa, lambda, N297G)
light 1: B1 light 1 with Y26R, R31I, Y32K, S33A
heavy 1: B1 heavy 1
light 2: B1 light 2 with W31Q
heavy 2: not shown
Turning to B8, in the assay with human PAC1 receptor, the “Fold-improvement over 29G4v22 Ab” value came to 6.9 fold and the half-inhibitory concentration (IC50) turned out to be 1.16 nM. In the assay with human CGRP receptor, the “Fold-improvement over 4E4 Ab” value was 1 fold and the “IC50” value came out at 0.52 nM.

B9: iPS:454791 (bispecific antibody, human IgG1, kappa, lambda, N297G)
light 1: B1 light 1
heavy 1: B1 heavy 1
light 2: B1 light 2 with W31Y
heavy 2: not shown
Turning to B9, in the assay with human PAC1 receptor, the “Fold-improvement over 29G4v22 Ab” value worked out at 7.1 fold and it took 0.79 nM to reach half-maximal inhibition (IC50). Moreover, in the assay with human CGRP receptor, the “Fold-improvement over 4E4 Ab” value was 1.2 fold and 0.44 nM corresponded to half-maximal inhibition (IC50).

B10: iPS:454809 (bispecific antibody, human IgG1, kappa, lambda, N297G)
light 1: B1 light 1 with Y26R, R31I, Y32K, S33A
heavy 1: B1 heavy 1
light 2: B1 light 2 with S28A, W31F, R93F
heavy 2: not shown
Take B10: in the assay with human PAC1 receptor, the “Fold-improvement over 29G4v22 Ab” value came to 4 fold and the “IC50” value stood at 2.01 nM. In the assay with human CGRP receptor, the “Fold-improvement over 4E4 Ab” value was 0.8 fold and the midpoint of inhibition, the IC50, lay at 0.64 nM.

B11: iPS:454813 (bispecific antibody, human IgG1, kappa, lambda, N297G)
light 1: B1 light 1 with Y26R, R31I, Y32K, S33A
heavy 1: B1 heavy 1
light 2: B1 light 2 with W31R
heavy 2: not shown
Consider B11, for which, in the assay with human PAC1 receptor, the “Fold-improvement over 29G4v22 Ab” value came to 9.9 fold and the concentration for half-maximal inhibition (IC50) was found to be 0.81 nM. In the assay with human CGRP receptor, the “Fold-improvement over 4E4 Ab” value worked out at 0.8 fold and half-maximal inhibition (IC50) required 0.61 nM.

B12: iPS:454789 (bispecific antibody, human IgG1, kappa, lambda, N297G)
light 1: B1 light 1
heavy 1: B1 heavy 1
light 2: B1 light 2
heavy 2: not shown
For the molecule B12, in the assay with human PAC1 receptor, the “Fold-improvement over 29G4v22 Ab” value is 5.5 fold and inhibition was half-maximal at 1.19 nM (IC50). In the assay with human CGRP receptor, the “Fold-improvement over 4E4 Ab” value was 1.7 fold and inhibition was half-maximal at 0.29 nM (IC50).

B13: iPS:454801 (bispecific antibody, human IgG1, kappa, lambda, N297G)
light 1: B1 light 1 with Y26R, R31I, Y32K, S33A
heavy 1: B1 heavy 1
light 2: B1 light 2 with W31Q
heavy 2: not shown
Turning to B13, in the assay with human PAC1 receptor, the “Fold-improvement over 29G4v22 Ab” value amounted to 4.4 fold and the concentration for half-maximal inhibition (IC50) was 1.82 nM. In the assay with human CGRP receptor, the “Fold-improvement over 4E4 Ab” value turned out to be 1.2 fold and the concentration for half-maximal inhibition (IC50) was found to be 0.44 nM.

B14: iPS:454795 (bispecific antibody, human IgG1, kappa, lambda, N297G)
light 1: B1 light 1 with Y26R, R31I, Y32K, S33A
heavy 1: B1 heavy 1
light 2: B1 light 2 with S28A, G30W, W31H, S32N, R93M
heavy 2: not shown
Regarding B14, in the assay with human PAC1 receptor, the “Fold-improvement over 29G4v22 Ab” value came to 2 fold and half-maximal inhibition (IC50) required 3.26 nM. In the assay with human CGRP receptor, the “Fold-improvement over 4E4 Ab” value worked out at 1.4 fold and the “IC50” value worked out at 0.37 nM.

B15: iPS:454811 (bispecific antibody, human IgG1, kappa, lambda, N297G)
light 1: B1 light 1 with Y26R, R31I, Y32K, S33A
heavy 1: B1 heavy 1
light 2: EIVLTQSPATLSLSPGERATLSCRASRAVSNLHWYQQKPGQAPRLLIKYASQSLSGIPARFSGSGSGTDFTLTISSLEPEDFAVYYCHQSSYLPFTFGPGTKVDIKRTVAAPSVFIFPPSDEQLKSGTASVVCLLNNFYPREAKVQWKVDNALQSGNSQESVTEQDSKDSTYSLESTLTLSKADYEKHKVYACEVTHQGLSSPVTKSFNRGEC
heavy 2: not shown
In the case of B15, in the assay with human PAC1 receptor, the “Fold-improvement over 29G4v22 Ab” value is 2.8 fold and the 50% inhibitory concentration (IC50) amounted to 2.85 nM. Also, in the assay with human CGRP receptor, the “Fold-improvement over 4E4 Ab” value is 1 fold and the concentration for half-maximal inhibition (IC50) is 0.53 nM.

B16: iPS:454807 (bispecific antibody, human IgG1, kappa, lambda, N297G)
light 1: B1 light 1 with Y26R, R31I, Y32K, S33A
heavy 1: B1 heavy 1
light 2: B1 light 2 with W31Q
heavy 2: not shown
As for B16, in the assay with human PAC1 receptor, the “Fold-improvement over 29G4v22 Ab” value worked out at 5.4 fold and the “IC50” value was 1.48 nM. Moreover, in the assay with human CGRP receptor, the “Fold-improvement over 4E4 Ab” value is 0.9 fold and half-maximal inhibition (IC50) was put at 0.56 nM.

B17: iPS:454819 (bispecific antibody, human IgG1, kappa, lambda, N297G)
light 1: B1 light 1 with Y26R, R31I, Y32K, S33A
heavy 1: B1 heavy 1
light 2: B1 light 2 with W31R
heavy 2: not shown
In the case of B17, in the assay with human PAC1 receptor, the “Fold-improvement over 29G4v22 Ab” value came out at 9.6 fold and the “IC50” value came out at 0.69 nM. For the same molecule, in the assay with human CGRP receptor, the “Fold-improvement over 4E4 Ab” value came to 1.8 fold and the half-inhibitory concentration (IC50) was 0.33 nM.

B18: iPS:454787 (bispecific antibody, human IgG1, kappa, lambda, N297G)
light 1: B1 light 1
heavy 1: B1 heavy 1
light 2: B1 light 2
heavy 2: not shown
For the molecule B18, in the assay with human PAC1 receptor, the “Fold-improvement over 29G4v22 Ab” value turned out to be 9.5 fold and the “IC50” value came to 0.69 nM. Moreover, in the assay with human CGRP receptor, the “Fold-improvement over 4E4 Ab” value turned out to be 1.8 fold and inhibition was half-maximal at 0.27 nM (IC50).

B19: iPS:454797 (bispecific antibody, human IgG1, kappa, lambda, N297G)
light 1: B1 light 1 with Y26R, R31I, Y32K, S33A
heavy 1: B1 heavy 1
light 2: B1 light 2 with K27R, W31L, S32A, R93F
heavy 2: not shown
Consider B19, for which, in the assay with human PAC1 receptor, the “Fold-improvement over 29G4v22 Ab” value amounted to 5.4 fold and half-maximal inhibition (IC50) was put at 1.21 nM. In the assay with human CGRP receptor, the “Fold-improvement over 4E4 Ab” value is 2.6 fold and the “IC50” value was found to be 0.2 nM.
